Test results taken from US20060062793A1 (published 2006).
One block for each binder: values may come before it.

Key:
[1] = target: T1, prostate specific membrane antigen (PSMA) on LNCaP cells (human, UniProt Q04609 1-750); test: not described
T1 construct: whole, on cells; Used for intact LNCaP cells, LNCaP membrane preparations and LNCaP tumour or prostate tissue sections; also called human PSMA; LNCap membrane preparation

[2] = target: T1, prostate specific membrane antigen …; test: ELISA on plates coated with LNCaP membrane preparation
[3] = target: T1, prostate specific membrane antigen …; test: ELISA on LNCaP membrane preparation, purified antibody, reference J415 chimeric antibody

T1 sequence (Q04609 whole entry): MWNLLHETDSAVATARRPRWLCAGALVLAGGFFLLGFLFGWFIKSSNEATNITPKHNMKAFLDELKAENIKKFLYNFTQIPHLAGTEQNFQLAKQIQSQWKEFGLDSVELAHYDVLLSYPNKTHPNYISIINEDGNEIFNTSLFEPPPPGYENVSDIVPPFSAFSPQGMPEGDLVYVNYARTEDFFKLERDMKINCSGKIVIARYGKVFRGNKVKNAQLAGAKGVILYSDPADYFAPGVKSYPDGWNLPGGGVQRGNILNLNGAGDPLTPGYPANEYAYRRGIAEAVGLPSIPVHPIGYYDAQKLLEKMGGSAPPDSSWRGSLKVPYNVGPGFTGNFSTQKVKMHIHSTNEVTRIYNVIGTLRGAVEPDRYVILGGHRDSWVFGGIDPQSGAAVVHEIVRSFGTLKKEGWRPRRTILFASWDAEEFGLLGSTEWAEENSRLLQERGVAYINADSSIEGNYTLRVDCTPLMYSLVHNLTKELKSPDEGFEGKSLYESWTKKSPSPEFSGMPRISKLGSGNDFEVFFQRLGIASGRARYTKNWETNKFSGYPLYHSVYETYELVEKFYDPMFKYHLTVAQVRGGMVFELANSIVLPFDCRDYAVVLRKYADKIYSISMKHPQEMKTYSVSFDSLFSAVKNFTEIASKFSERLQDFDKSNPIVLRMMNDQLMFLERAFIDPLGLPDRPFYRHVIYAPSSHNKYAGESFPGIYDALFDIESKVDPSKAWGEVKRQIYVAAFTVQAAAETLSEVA

binding result [1]: binds
B1: murine E99 monoclonal antibody (antibody, mouse IgG3, V domains shown)
VH: QVQLKESGPGLVASSQSLSITCTVSGFSLTAYGINWVRQPPGKGLEWLGVIWPDGNTDYNSTLKSRLNIFKDNSKNQVFLKMSSFQTDDTARYFCARDSYGNFKRGWFDFWGQGTTLTVSS
VL: NIVMTQSQKFMSTSPGDRVRVTCKASQNVGSDVAWYQAKPGQSPRILIYSTSYRYSGVPDRFTAYGSGTDFTLTITNVQSEDLTEYFCQQYNSYPLTFGAGTKLELK

binding result [2]: binds
B2: deimmunized J415 antibody, heavy chain version 4 with light chain version 5 (antibody, human IgG1, V domains shown)
VH: EVKLEESGGGLVQPGGSMKISCVASGFTFSNYWMNWVRQSPEKGLEWVAEIRSQSNNFATHYAESVKGRVIISRDDSKSSVYLQMNSLRAEDTAVYYCTRRWNNFWGQGTTVTVSS
VL: NIVMTQFPKSMSASAGERMTLTCKASENVGTYVSWYQQKPTQSPKMLIYGASNRFTGVPDRFSGSGSGTDFILTISSVQAEDLVDYYCGQSYTFPYTFGGGTKLEMK
notes: also called DIVH4/DIVK5; J415DIVH4/J415DIVK5

fold less binding than the chimeric antibody [3]: 2 fold
B3: deimmunized J415 antibody, heavy chain version 1 with light chain version 5 (antibody, human IgG1, V domains shown)
VH: EVKLEESGGGLVQPGGSMKISCKASGFTFSNYWMNWVRQTPEKGLEWVALIRSQSNNFATHYAESVKGRVIISRDDSKSSVYLQMNSLRAEDTAVYYCTRRWNNFWGQGTTVTVSS
VL: NIVMTQFPKSMSASAGERMTLTCKASENVGTYVSWYQQKPTQSPKMLIYGASNRFTGVPDRFSGSGSGTDFILTISSVQAEDLVDYYCGQSYTFPYTFGGGTKLEMK
notes: also called DIVH1/DIVK5; J415DIVH1 with DIVK5

binding result [2]: binds
B4: J415 chimeric antibody (antibody, V domains shown)
VH: EVKLEESGGGLVQPGGSMKLSCVASGFTFSNYWMNWVRQSPEKGLEWVAEIRSQSNNFATHYAESVKGRVIISRDDSKSSVYLQMNNLRAEDTGIYYCTRRWNNFWGQGTTLTVSS
VL: NIVMTQFPKSMSISVGERVTLTCKASENVGTYVSWYQQKPEQSPKMLIYGASNRFTGVPDRFTGSGSATDFILTISSVQTEDLVDYYCGQSYTFPYTFGGGTKLEMK
notes: also called the chimeric

binding result [1]: binds
B5: murine J415 monoclonal antibody (antibody, mouse IgG1, V domains shown)
VH: EVKLEESGGGLVQPGGSMKLSCVASGFTFSNYWMNWVRQSPEKGLEWVAEIRSQSNNFATHYAESVKGRVIISRDDSKSSVYLQMNNLRAEDTGIYYCTRRWNNFWGQGTTLTVSS
VL: NIVMTQFPKSMSISVGERVTLTCKASENVGTYVSWYQQKPEQSPKMLIYGASNRFTGVPDRFTGSGSATDFILTISSVQTEDLVDYYCGQSYTFPYTFGGGTKLEMK
notes: Mouse IgG1 kappa, hybridoma ATCC HB-12109

fold less binding than the chimeric antibody [3]: 2 fold
B6: deimmunized J415 antibody, heavy chain version 2 with light chain version 5 (antibody, human IgG1, V domains shown)
VH: EVKLEESGGGLVQPGGSMKISCVASGFTFSNYWMNWVRQTPEKGLEWVALIRSQSNNFATHYAESVKGRVIISRDDSKSSVYLQMNSLRAEDTAVYYCTRRWNNFWGQGTTVTVSS
VL: NIVMTQFPKSMSASAGERMTLTCKASENVGTYVSWYQQKPTQSPKMLIYGASNRFTGVPDRFSGSGSGTDFILTISSVQAEDLVDYYCGQSYTFPYTFGGGTKLEMK
notes: also called DIVH2/DIVK5; J415DIVH2 with DIVK5

binding result [1]: binds
B7: murine J533 monoclonal antibody (antibody, mouse IgG1, V domains shown)
VH: EVQLQQSGPELVKPGASVKMSCKASGYTFTGYVMHWVKQKPGQVLEWIGYINPYNDVTRYNGKFKGKATLTSDKYSSTAYMELSGLTSEDSAVYYCARGENWYYFDSWGRGATLTVSS
VL: DIVLTQSPASLAVSLGQRATISCRASESIDSYDNTFMHWYQQKPGQPPNLLIFRASILESGIPARFSGSGSGTDFTLTIYPVEADDVATYYCHQSIEDPYTFGGGTKLEIK
notes: Mouse IgG1 kappa, hybridoma ATCC HB-12127
